Data from publication PMC10723112 (Nature chemical biology, 2023).
Non-standard residues stand in square brackets, D forms with d. No end group written: not given here. pY = N[C@@H](Cc1ccc(OP(=O)(O)O)cc1)C(=O)O

Legend:
[1] = molecular target: 5-FAM-SMG9 peptide (human) (UniProt Q9H0W8); assay: fluorescence polarisation
OGT = molecular target: T1, OGT (Homo sapiens, UniProt O15294); assay: Competitive fluorescence polarization; conditions: FP competition with 5-FAM-SMG9 for OGT binding, n=3
T1 sequence (O15294 1-1046): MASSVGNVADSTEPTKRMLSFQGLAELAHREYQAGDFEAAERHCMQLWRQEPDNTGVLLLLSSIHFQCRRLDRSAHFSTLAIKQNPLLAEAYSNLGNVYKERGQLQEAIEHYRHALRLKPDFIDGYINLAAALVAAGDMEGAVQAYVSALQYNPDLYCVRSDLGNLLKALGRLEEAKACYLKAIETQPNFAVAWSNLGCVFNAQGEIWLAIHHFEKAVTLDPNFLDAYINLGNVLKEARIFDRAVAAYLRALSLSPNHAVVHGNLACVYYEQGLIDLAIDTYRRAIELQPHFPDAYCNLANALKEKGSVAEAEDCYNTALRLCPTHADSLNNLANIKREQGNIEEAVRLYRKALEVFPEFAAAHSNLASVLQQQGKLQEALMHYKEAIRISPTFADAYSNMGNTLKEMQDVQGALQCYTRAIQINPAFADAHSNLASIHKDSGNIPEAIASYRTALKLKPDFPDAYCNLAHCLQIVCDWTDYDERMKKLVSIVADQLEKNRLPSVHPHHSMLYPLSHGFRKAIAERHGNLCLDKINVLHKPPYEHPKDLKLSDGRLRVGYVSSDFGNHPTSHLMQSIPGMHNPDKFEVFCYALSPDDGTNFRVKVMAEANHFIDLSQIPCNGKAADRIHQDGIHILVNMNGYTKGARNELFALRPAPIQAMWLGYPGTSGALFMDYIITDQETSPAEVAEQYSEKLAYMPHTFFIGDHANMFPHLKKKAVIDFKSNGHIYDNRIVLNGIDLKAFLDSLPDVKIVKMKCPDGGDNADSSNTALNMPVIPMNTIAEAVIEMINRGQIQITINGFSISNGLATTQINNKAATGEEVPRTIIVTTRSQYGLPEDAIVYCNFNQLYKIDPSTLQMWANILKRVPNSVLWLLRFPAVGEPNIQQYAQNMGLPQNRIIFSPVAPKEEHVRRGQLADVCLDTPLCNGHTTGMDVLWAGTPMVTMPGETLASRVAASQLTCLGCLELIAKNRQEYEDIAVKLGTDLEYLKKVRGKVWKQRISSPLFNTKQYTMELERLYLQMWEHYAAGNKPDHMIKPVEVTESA

Row | fold shift of EC50 against WT OGT [1] [fold] | Substance | peptide binding to OGT (OGT)
1 | > 10 | OGT I734R (enzyme) | –
2 | > 10 | OGT N791A (enzyme) | –
3 | – | SMG9 pY147: phosphorylated SMG9 peptide (pY147) (QRPTQPV[pY]QIQNRGMG) | disrupted peptide binding, to a similar degree as Y147F
4 | > 10 | OGT F723E (enzyme) | –
